Ends that are not written are not given here.
T1: Human hexokinase II (HK‐II), recombinant (human, UniProt P52789 1-917, fluorescently labeled using a NanoTemper BLUE protein‐labeling kit (in the MST))
T1 chain: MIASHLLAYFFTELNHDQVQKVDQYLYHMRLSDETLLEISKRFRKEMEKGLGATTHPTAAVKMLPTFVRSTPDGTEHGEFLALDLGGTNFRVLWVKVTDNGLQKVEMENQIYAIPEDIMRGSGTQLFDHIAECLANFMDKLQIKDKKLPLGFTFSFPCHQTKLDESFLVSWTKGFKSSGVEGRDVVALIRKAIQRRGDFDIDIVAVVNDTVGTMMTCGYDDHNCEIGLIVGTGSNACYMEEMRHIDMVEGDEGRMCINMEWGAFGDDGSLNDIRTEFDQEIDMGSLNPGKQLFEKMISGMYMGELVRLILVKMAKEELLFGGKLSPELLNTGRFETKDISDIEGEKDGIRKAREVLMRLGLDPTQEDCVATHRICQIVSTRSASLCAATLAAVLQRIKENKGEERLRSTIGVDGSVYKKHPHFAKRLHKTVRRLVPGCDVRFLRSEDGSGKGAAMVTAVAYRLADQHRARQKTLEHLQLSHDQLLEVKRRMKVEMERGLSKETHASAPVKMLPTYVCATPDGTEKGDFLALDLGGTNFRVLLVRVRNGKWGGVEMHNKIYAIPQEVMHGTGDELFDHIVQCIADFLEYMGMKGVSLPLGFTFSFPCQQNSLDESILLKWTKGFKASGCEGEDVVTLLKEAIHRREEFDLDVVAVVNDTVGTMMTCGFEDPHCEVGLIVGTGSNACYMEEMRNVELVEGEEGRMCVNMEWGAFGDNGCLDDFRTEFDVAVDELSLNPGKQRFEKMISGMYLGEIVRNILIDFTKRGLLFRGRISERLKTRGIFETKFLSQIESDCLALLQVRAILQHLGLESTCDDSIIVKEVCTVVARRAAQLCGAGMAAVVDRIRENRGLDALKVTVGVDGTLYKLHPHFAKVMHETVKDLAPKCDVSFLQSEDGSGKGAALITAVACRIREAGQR

T2: Human hexokinase II (HK‐II), recombinant (human, UniProt P52789 1-917, fluorescently labeled using a NanoTemper BLUE protein‐labeling kit (in the MST))
T2 construct: hexokinase II (HK‐II), human, cloned into plasmid pET‐His; source: E. coli BL21, IPTG induction, purified (HiTrap nickel column, Blue HiTrap column)
T2 sequence (looked up): T1 chain

B1: Antp‐LP4 (peptide)
peptide: RQIKIWFQNRRMKWKKSWTWEKKLETAVNLAWTAGNSNKWTWK
notes: amino acids added to form a loop‐shaped tryptophan zipper (N‐terminal arm); amino acids added to form a loop‐shaped tryptophan zipper (C‐terminal arm); 43 residues as printed; source: synthetic peptide (GL Biochem, > 85% purity)
B2: Human hexokinase I (HK‐I), recombinant (enzyme, UniProt P19367 1-917, looked up)
chain: MIAAQLLAYYFTELKDDQVKKIDKYLYAMRLSDETLIDIMTRFRKEMKNGLSRDFNPTATVKMLPTFVRSIPDGSEKGDFIALDLGGSSFRILRVQVNHEKNQNVHMESEVYDTPENIVHGSGSQLFDHVAECLGDFMEKRKIKDKKLPVGFTFSFPCQQSKIDEAILITWTKRFKASGVEGADVVKLLNKAIKKRGDYDANIVAVVNDTVGTMMTCGYDDQHCEVGLIIGTGTNACYMEELRHIDLVEGDEGRMCINTEWGAFGDDGSLEDIRTEFDREIDRGSLNPGKQLFEKMVSGMYLGELVRLILVKMAKEGLLFEGRITPELLTRGKFNTSDVSAIEKNKEGLHNAKEILTRLGVEPSDDDCVSVQHVCTIVSFRSANLVAATLGAILNRLRDNKGTPRLRTTVGVDGSLYKTHPQYSRRFHKTLRRLVPDSDVRFLLSESGSGKGAAMVTAVAYRLAEQHRQIEETLAHFHLTKDMLLEVKKRMRAEMELGLRKQTHNNAVVKMLPSFVRRTPDGTENGDFLALDLGGTNFRVLLVKIRSGKKRTVEMHNKIYAIPIEIMQGTGEELFDHIVSCISDFLDYMGIKGPRMPLGFTFSFPCQQTSLDAGILITWTKGFKATDCVGHDVVTLLRDAIKRREEFDLDVVAVVNDTVGTMMTCAYEEPTCEVGLIVGTGSNACYMEEMKNVEMVEGDQGQMCINMEWGAFGDNGCLDDIRTHYDRLVDEYSLNAGKQRYEKMISGMYLGEIVRNILIDFTKKGFLFRGQISETLKTRGIFETKFLSQIESDRLALLQVRAILQQLGLNSTCDDSILVKTVCGVVSRRAAQLCGAGMAAVVDKIRENRGLDRLNVTVGVDGTLYKLHPHFSRIMHQTVKELSPKCNVSFLLSEDGSGKGAALITAVGVRLRTEASS
modifications: fluorescently labeled using a NanoTemper BLUE protein‐labeling kit (in the MST)

How the values were obtained:
[1] = tested on: T‐Rex‐293; assay: Cell death, PI staining and FACS; type: cell-based, human
Description: (§1) Leukemia cells, U‐937, MEC‐1 cells (4 × 10^5 or 8 × 10^5 cells/sample, respectively), as well as other leukemia or suspension cell lines, were incubated in 200 μL serum‐free medium with various concentrations of the peptide for 90 min at 23–25 °C, collected by centrifugation (500 g, 5 min), washed with PBS, and analyzed for cell death. Adherent cells (6 × 10^5 mL^−1 at 70–80% confluence) were incubated with the peptide of interest in 500 μL serum‐free recommended culture medium for 3–6 h at 37 °C and 5% CO2. The cells were then trypsinized, centrifuged (1500 g, 5 min), washed with PBS, and analyzed for the desired activity. Following peptide treatment, cells were subjected to cell death analysis. […] PRO software (BD Biosciences, San Jose, CA, USA).
(§2) For each line, cells were incubated with different peptide concentrations, and cell death was determined by PI staining and FACS analysis (Figs 1, 2, 3).

[2] = tested on: PWR‐1E; assay: Cell death, PI staining and FACS; type: cell-based; details: 6 h, PI/FACS (Fig. 2G)
Description: as §1, §2

[3] = tested on: PANC1; assay: Cell death, PI staining and FACS; type: cell-based; details: PANC1 (Group 3, Fig. 1H); 6 h; about 10% in the absence of peptides
Description: as §1, §2

[4] = target: T1, Human hexokinase II (HK‐II), recombinant; assay: MST
[5] = target: T2, Human hexokinase II (HK‐II), recombinant; assay: MST; fluorescently labeled HK‐I (830 nM) or HK‐II (100 nM) incubated 20 min with peptide (1–100 μM) in PBS; NanoTemper Monolith‐NT115, 40% LED, 40% IR laser power; details: both partners purified
[6] = target: B2; assay: as above; details: both partners purified
[7] = target: voltage‐dependent anion channel 1 (VDAC1) (human (endogenous in HeLa), UniProt P21796 1-283); assay: cell-based or functional assay

## HAIYPRHSWTWE-199-KKLETA VNLAWTAGNSN-216-KWTWK [Tf‐LP4]
[1]; T‐Rex‐293, 6 h, PI/FACS (Fig. 2E)
  cell death induction in noncancerous cells: almost no cell death induction
[2]
  cell death induction in noncancerous cells: almost no cell death induction

## MAVPPTYADLGKSARDVFTKGYGFGLRQIKIWFQNRRMKWKK [N‐Ter‐Antp]
[1]; T‐Rex‐293 (Group 3, Fig. 1I), 6 h, about 10% in the absence of peptides
  steady‐state level of cell death: about 50%
[3]
  steady‐state level of cell death: about 50%

## B1
[4]
  Kd: 7.1 µM
[5]
  binding result: binds
[6]
  binding result: binds

## B2
[7]
  HK‐I in the cytosolic fraction (0.025% digitonin fractionation, immunoblot) of A549 cells treated with Tf‐D‐LP4 (3, 5, 10 μM, 3 h): ~2 fold
  HK‐I in the cytosolic fraction (0.025% digitonin fractionation, immunoblot) of HeLa cells treated with R‐Tf‐D‐LP4 (3, 5, 10 μM, 3 h): ~2 fold

Reference: paper PMC6026870, “Selective induction of cancer cell death by VDAC1‐based peptides and their potential use in cancer therapy” (Molecular Oncology, 2018)
